Measured values reported in publication PMC3695512, “Recognition of two distinct elements in the RNA substrate by the RNA-binding domain of the T. thermophilus DEAD box helicase Hera”.

Experiments:
Hera_RBD_dC-tail = biological target: T1, Hera_RBD_dC-tail (Thermus thermophilus, UniProt O07897 424-491, del492-510); assay: fluorescence anisotropy; Anisotropy: 50 mM Tris/HCl pH 7.5, 150 mM NaCl, 5 mM MgCl2 (Fig 2), 25 C, 50 nM RNA; EMSA: same Tris/NaCl, 12% glycerol, 25 C; NMR: 25 mM Bis-Tris/HCl pH 6.0, 50 mM NaCl, 10% D2O, 37 C; conditions: protein: recombinant; label: 5'-fluorescein
T1 sequence: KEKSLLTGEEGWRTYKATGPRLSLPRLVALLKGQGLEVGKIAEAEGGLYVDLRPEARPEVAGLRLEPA

Hera_RBD [1] = biological target: T2, Hera_RBD (Thermus thermophilus, UniProt O07897 424-510); assay: as above; conditions: protein: recombinant; label: 5'-fluorescein
T2 sequence: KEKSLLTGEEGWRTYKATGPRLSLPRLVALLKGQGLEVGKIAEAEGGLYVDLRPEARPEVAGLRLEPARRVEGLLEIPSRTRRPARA

Hera full-length = biological target: T3, Hera full-length (Thermus thermophilus, UniProt O07897 1-510); assay: fluorescence anisotropy; 1 uM Hera; complex forms instantaneously; Anisotropy: 50 mM Tris/HCl pH 7.5, 150 mM NaCl, 5 mM MgCl2 (Fig 2), 25 C, 50 nM RNA; EMSA: same Tris/NaCl, 12% glycerol, 25 C; NMR: 25 mM Bis-Tris/HCl pH 6.0, 50 mM NaCl, 10% D2O, 37 C; conditions: protein: recombinant; chain copies: 2; label: 3'-fluorescein on 9mer; 9 bp duplex (strand 1 nt 3-11) plus 3' hairpin; 5' overhang 2 nt
T3 sequence: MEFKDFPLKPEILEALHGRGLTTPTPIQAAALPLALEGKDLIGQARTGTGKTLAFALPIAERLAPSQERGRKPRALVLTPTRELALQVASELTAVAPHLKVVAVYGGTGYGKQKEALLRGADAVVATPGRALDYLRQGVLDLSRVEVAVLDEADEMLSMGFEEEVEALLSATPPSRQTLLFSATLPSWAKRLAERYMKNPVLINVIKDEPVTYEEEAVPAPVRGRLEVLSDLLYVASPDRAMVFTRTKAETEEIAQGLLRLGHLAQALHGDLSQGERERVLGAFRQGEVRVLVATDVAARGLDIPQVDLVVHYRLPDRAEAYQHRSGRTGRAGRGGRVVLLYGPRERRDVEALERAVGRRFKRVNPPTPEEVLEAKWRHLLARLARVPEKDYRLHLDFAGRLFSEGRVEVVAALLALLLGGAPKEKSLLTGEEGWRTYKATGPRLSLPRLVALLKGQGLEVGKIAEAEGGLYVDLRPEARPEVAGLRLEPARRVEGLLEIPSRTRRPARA

Hera_RBD [2] = biological target: T2, Hera_RBD; assay: NMR; CSP pattern similar to 21mer; Anisotropy: 50 mM Tris/HCl pH 7.5, 150 mM NaCl, 5 mM MgCl2 (Fig 2), 25 C, 50 nM RNA; EMSA: same Tris/NaCl, 12% glycerol, 25 C; NMR: 25 mM Bis-Tris/HCl pH 6.0, 50 mM NaCl, 10% D2O, 37 C; conditions: protein: recombinant; hairpin with 5' single strand
Hera_RBD [3] = biological target: T2, Hera_RBD; assay: NMR; pH 6.0, 50 mM NaCl, 37 C; Anisotropy: 50 mM Tris/HCl pH 7.5, 150 mM NaCl, 5 mM MgCl2 (Fig 2), 25 C, 50 nM RNA; EMSA: same Tris/NaCl, 12% glycerol, 25 C; NMR: 25 mM Bis-Tris/HCl pH 6.0, 50 mM NaCl, 10% D2O, 37 C; conditions: protein: recombinant
Hera_RBD [4] = biological target: T2, Hera_RBD; assay: NMR; Kd1, RBD core resonances (424-493); Anisotropy: 50 mM Tris/HCl pH 7.5, 150 mM NaCl, 5 mM MgCl2 (Fig 2), 25 C, 50 nM RNA; EMSA: same Tris/NaCl, 12% glycerol, 25 C; NMR: 25 mM Bis-Tris/HCl pH 6.0, 50 mM NaCl, 10% D2O, 37 C; conditions: protein: recombinant; hairpin with 5' single strand
GST-Hera_RBD = biological target: T4, GST-Hera_RBD (Thermus thermophilus, UniProt O07897 424-510); assay: EMSA; 6 uM RNA; 12% glycerol; Anisotropy: 50 mM Tris/HCl pH 7.5, 150 mM NaCl, 5 mM MgCl2 (Fig 2), 25 C, 50 nM RNA; EMSA: same Tris/NaCl, 12% glycerol, 25 C; NMR: 25 mM Bis-Tris/HCl pH 6.0, 50 mM NaCl, 10% D2O, 37 C; conditions: protein: recombinant; tags: N-terminal GST; label: none (NMR, ITC); 5'-fluorescein (EMSA); hairpin with 5' single strand
T4 sequence: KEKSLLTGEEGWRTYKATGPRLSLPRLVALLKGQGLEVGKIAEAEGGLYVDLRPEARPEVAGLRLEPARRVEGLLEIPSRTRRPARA

Hera_RBD [5] = biological target: T2, Hera_RBD; assay: ITC; 5 mM Mg2+; estimate, no initial baseline; Anisotropy: 50 mM Tris/HCl pH 7.5, 150 mM NaCl, 5 mM MgCl2 (Fig 2), 25 C, 50 nM RNA; EMSA: same Tris/NaCl, 12% glycerol, 25 C; NMR: 25 mM Bis-Tris/HCl pH 6.0, 50 mM NaCl, 10% D2O, 37 C; conditions: protein: recombinant; label: none (NMR, ITC); 5'-fluorescein (EMSA); hairpin with 5' single strand
Hera_RBD [6] = biological target: T2, Hera_RBD; assay: NMR; core CSPs, none in C-tail; Anisotropy: 50 mM Tris/HCl pH 7.5, 150 mM NaCl, 5 mM MgCl2 (Fig 2), 25 C, 50 nM RNA; EMSA: same Tris/NaCl, 12% glycerol, 25 C; NMR: 25 mM Bis-Tris/HCl pH 6.0, 50 mM NaCl, 10% D2O, 37 C; conditions: protein: recombinant

Question: Which results are given for GGGC (ssRNA) [4mer]?
Answer: Kd (Hera_RBD_dC-tail): 8 µM; Kd (Hera_RBD [1]): 11 µM

B1: 32/9mer (mixed)
RNA 1: GCAGGUCCCAAGGGUUGGGCUGUUCGCCCAUU
RNA 2: UUGGGACCU
Question: Does B1 bind (Hera full-length)?
Answer: Result: binds

Question: Does GGGUUGGGCUAUUCGCCCAUU (structured_RNA) [21mer_modloop] bind (Hera_RBD [2])?
Answer: Result: binds

Question: For GUUGGGCUGUUCGCCCAUU (structured_RNA) [19mer], which Kd (Hera_RBD [3]; hairpin) is on record?
Answer: Its Kd is about 75 µM.

Question: Which Kd (Hera_RBD [4]) does the source give for CACUUGGGCUGUUCGCCCAUU (structured_RNA) [21mer_mod] here?
Answer: Its Kd is about 52.9 µM.

Question: What does the source list for GGGUUGGGCUGUUCGCCCAUU (structured_RNA) [21mer]?
Answer: Kd (GST-Hera_RBD): ~23 µM; Kd (Hera_RBD [3]; label: none (NMR, ITC), 5'-fluorescein (EMSA), hairpin with 5' single strand): ~6 µM; Kd (Hera_RBD [5]): ~40 µM

Question: Does GGGCC (ssRNA) [5mer] bind (Hera_RBD [6])?
Answer: Result: binds
